According to PMC6277223 (Neoplasia (New York, N.Y.), 2018):

Molecular target: His-SIRT6 (UniProt Q8N6T7 1-355)
Assay: pull-down

Chain of His-SIRT6 (Q8N6T7 whole entry): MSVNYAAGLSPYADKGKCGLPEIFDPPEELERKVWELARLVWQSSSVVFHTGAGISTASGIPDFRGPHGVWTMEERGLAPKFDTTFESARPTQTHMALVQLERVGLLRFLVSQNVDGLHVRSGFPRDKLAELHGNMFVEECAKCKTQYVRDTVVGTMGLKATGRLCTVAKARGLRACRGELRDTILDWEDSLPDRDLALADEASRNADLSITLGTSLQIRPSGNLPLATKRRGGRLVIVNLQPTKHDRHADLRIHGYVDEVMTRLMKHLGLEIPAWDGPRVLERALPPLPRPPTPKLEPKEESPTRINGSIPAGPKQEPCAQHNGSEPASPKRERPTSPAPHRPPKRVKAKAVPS

binding result: binds
B1: GST-PKCζ N-terminus (1-251 aa) (domain or fragment, UniProt Q05513 1-251, looked up)
chain: MPSRTGPKMEGSGGRVRLKAHYGGDIFITSVDAATTFEELCEEVRDMCRLHQQHPLTLKWVDSEGDPCTVSSQMELEEAFRLARQCRDEGLIIHVFPSTPEQPGLPCPGEDKSIYRRGARRWRKLYRANGHLFQAKRFNRRAYCGQCSERIWGLARQGYRCINCKLLVHKRCHGLVPLTCRKHMDSVMPSQEPPVDDKNEDADLPSEETDGIAYISSSRKHDSIKDDSEDLKPVIDGMDGIKISQGLGLQD
